Target: CdPpiB wild type fused to the T25 subunit of adenylate cyclase (pKNTB) (C. difficile str. 630Δerm) (UniProt Q18D70)
Test: two-hybrid; BACTH in E. coli BTH101; β-galactosidase assay (ONPG, 12 min, 30°C) in Miller Units, cultures grown o/n at 30°C with 0.5 mM IPTG

Lrp P87A fused to the T18 subunit of adenylate cyclase (natural protein)
β-galactosidase activity: 869 MU

Reference: PMC6459899, “Pleiotropic Clostridioides difficile Cyclophilin PpiB Controls Cysteine-Tolerance, Toxin Production, the Central Metabolism and Multiple Stress Responses” (Frontiers in Pharmacology, 2019)
